{"source": "paper PMC2642969", "about": "(Molecular cell, 2008)", "binders": {"B1": {"name": "HA-HP1a (recombinant, full-length) (natural protein, Drosophila melanogaster, UniProt P05205 1-206, looked up)", "chain": "MGKKIDNPESSAKVSDAEEEEEEYAVEKIIDRRVRKGKVEYYLKWKGYPETENTWEPENNLDCQDLIQQYEASRKDEEKSAASKKDRPSSSAKAKETQGRASSSTSTASKRKSEEPTAPSGNKSKRTTDAEQDTIPVSGSTGFDRGLEAEKILGASDNNGRLTFLIQFKGVDQAEMVPSSVANEKIPRMVIHFYEERLSWYSDNED"}, "B2": {"name": "HA-HP1a-V26M (natural protein, Drosophila melanogaster, UniProt P05205 1-206, looked up)", "chain": "MGKKIDNPESSAKVSDAEEEEEEYAMEKIIDRRVRKGKVEYYLKWKGYPETENTWEPENNLDCQDLIQQYEASRKDEEKSAASKKDRPSSSAKAKETQGRASSSTSTASKRKSEEPTAPSGNKSKRTTDAEQDTIPVSGSTGFDRGLEAEKILGASDNNGRLTFLIQFKGVDQAEMVPSSVANEKIPRMVIHFYEERLSWYSDNED"}}, "key": {"[1]": {"target": "T1, FLAG-dKDM4A (recombinant, Sf21) (Drosophila melanogaster, UniProt Q9V333 1-495)", "T1 sequence (looked up)": "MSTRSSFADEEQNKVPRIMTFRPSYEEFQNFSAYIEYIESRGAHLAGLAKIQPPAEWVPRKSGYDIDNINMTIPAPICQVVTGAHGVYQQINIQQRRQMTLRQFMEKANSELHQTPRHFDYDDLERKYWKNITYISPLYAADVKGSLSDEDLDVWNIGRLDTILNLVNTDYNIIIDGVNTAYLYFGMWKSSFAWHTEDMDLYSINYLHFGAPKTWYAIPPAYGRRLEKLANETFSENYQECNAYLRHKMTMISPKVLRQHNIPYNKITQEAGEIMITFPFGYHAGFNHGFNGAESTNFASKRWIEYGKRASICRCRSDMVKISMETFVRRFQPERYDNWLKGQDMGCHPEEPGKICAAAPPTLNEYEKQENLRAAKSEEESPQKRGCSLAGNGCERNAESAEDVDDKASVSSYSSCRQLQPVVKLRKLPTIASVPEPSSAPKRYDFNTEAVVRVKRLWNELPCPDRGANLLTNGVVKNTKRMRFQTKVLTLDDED", "test": "co-IP"}, "[2]": {"target": "T1, FLAG-dKDM4A (recombinant, Sf21)", "test": "co-IP", "remark": "listed apart in the source"}}, "note": "Read-outs that look alike come from different tables or passages of the source.", "data": [{"binder": "B1", "values": [{"measurement": "binding result", "setting": "[1]", "result": "binds"}]}, {"binder": "B2", "values": [{"measurement": "binding result", "setting": "[2]", "result": "binds"}]}]}
